In patent US20240116985A1 (published 2024):
Starred links: 1 amine or outer side, 2 acyl side, 3 side chain; linkers in the order of their positions; H or OH if unused. Positions of bridges follow the written chain, without caps; N, C: chain ends. Non-standard residues stand in square brackets, D forms with d. Primed or numbered codes have the meaning given here. B5(16) = 2-amino-2-(pent-4-en-1-yl)hept-6-enoic acid = 2,2-bis(4-pentenyl)glycine (stitching residue), C=CCCCC(CCCC=C)(N[*:1])C(=O)[*:2]; B5(4) = 2,2-bis(4-pentenyl)glycine = 2-amino-2-(pent-4-en-1-yl)hept-6-enoic acid (stitching residue), C=CCCCC(CCCC=C)(N[*:1])C(=O)[*:2]; B5(5) = 2,2-bis(4-pentenyl)glycine, 2-amino-2-(pent-4-en-1-yl)hept-6-enoic acid (stitching residue), C=CCCCC(CCCC=C)(N[*:1])C(=O)[*:2]; SeN = (S)-5-(((allyloxy)carbonyl)(methyl)amino)-2-amino-2-methylpentanoic acid, C=CCOC(=O)N(C)CCC[C@](C)(N[*:1])C(=O)[*:2]; B5(9) = 2-amino-2-(pent-4-en-1-yl)hept-6-enoic acid (2,2-bis(4-pentenyl)glycine), C=CCCCC(CCCC=C)(N[*:1])C(=O)[*:2]; d(βAsp) = O=C(O)[C@@H](CC(=O)[*:2])N[*:1]; Phe(3-Cl) = N[C@@H](Cc1cccc(Cl)c1)C(=O)O; Phe(3-Me) = Cc1cccc(C[C@H](N)C(=O)O)c1; Bta = N[C@@H](Cc1csc2ccccc12)C(=O)O; αAllylPro = C=CC[C@@]1(C(=O)O)CCCN1; S8 = C=CCCCCCC[C@](C)(N)C(=O)O

T1: full-length beta-Catenin (Uniprot ID P35222) (Homo sapiens (Human), UniProt P35222 1-781)
T1 construct: Used full-length in the FP and AlphaScreen assays; also called B-Catenin; bCat
T1 sequence: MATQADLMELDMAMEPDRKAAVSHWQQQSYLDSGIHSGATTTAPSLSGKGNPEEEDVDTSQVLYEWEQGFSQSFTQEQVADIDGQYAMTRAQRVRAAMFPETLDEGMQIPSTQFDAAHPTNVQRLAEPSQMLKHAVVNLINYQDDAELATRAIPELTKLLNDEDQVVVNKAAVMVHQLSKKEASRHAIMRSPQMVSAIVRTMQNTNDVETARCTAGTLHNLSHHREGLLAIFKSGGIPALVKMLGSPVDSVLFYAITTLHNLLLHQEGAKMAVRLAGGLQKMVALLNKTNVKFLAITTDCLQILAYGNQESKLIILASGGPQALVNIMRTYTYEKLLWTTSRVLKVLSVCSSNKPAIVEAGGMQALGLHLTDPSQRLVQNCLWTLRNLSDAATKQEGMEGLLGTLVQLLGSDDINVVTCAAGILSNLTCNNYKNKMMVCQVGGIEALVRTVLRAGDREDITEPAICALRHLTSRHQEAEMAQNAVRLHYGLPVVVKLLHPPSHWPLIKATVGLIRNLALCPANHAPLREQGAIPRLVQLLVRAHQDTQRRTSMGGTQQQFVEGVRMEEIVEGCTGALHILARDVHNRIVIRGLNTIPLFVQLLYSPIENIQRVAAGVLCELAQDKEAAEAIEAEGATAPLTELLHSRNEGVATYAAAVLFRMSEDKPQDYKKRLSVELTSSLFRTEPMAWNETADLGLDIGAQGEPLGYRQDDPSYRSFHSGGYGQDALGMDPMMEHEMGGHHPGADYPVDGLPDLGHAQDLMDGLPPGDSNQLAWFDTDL

T2: full-length beta-Catenin (Uniprot ID P35222) (Homo sapiens (Human), UniProt P35222 2-781)
T2 construct: 'mature' is the nearest allowed form; also called bCat; B-Catenin
T2 sequence: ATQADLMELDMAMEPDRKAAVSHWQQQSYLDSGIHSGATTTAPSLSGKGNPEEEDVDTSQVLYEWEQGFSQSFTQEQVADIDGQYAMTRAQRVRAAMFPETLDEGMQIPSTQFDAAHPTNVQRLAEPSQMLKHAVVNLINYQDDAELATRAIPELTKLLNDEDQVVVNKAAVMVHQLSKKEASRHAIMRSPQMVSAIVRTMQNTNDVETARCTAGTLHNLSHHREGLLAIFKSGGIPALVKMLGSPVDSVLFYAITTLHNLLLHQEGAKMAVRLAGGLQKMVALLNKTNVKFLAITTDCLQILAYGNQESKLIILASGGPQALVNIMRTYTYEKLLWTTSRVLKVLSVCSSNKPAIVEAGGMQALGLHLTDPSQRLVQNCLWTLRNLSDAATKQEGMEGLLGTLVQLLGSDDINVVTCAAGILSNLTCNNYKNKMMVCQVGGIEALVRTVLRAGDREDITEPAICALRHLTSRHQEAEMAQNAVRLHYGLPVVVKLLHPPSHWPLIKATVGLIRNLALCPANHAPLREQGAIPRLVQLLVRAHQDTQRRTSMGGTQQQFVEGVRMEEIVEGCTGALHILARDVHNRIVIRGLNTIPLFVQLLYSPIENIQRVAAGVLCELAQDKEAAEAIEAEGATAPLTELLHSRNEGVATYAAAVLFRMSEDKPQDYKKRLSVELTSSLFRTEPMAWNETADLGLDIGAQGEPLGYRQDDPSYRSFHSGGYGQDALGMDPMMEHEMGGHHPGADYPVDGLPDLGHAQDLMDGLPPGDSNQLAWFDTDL

T3: full-length beta-Catenin (Uniprot ID P35222) (Homo sapiens (Human), UniProt P35222 1-781)
T3 construct: the AlphaScreen used a Histidine (Nickel Chelate) detection kit, so a His tag is likely but not described; also called B-Catenin; bCat
T3 sequence: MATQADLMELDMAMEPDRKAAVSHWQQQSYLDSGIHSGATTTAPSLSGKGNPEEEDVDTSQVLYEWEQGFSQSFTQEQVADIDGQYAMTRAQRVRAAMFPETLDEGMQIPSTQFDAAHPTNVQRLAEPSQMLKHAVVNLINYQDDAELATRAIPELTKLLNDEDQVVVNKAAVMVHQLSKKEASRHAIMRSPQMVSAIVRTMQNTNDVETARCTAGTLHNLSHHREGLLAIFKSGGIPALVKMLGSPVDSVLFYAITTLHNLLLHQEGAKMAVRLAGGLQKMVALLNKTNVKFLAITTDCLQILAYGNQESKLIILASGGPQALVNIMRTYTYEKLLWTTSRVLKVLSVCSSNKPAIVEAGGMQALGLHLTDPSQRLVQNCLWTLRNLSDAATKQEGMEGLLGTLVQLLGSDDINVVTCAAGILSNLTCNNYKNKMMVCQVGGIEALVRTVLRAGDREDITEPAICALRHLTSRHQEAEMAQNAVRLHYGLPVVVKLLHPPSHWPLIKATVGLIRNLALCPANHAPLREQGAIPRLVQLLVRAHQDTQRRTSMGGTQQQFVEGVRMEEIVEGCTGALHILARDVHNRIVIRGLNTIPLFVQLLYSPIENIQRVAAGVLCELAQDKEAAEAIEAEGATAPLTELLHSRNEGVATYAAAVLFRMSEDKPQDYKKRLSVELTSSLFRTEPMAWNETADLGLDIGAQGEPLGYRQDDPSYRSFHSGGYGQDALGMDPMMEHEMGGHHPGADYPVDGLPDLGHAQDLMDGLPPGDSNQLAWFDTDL

B1: I-189 (peptide)
peptide: Ac-[αAllylPro]DI[B5(5)]DDAAFQ[SeN]FWH-NH2
modifications: staple 1-4, 4-11; not fully specified; printed as Ac-PL3-Asp-Ile-B5-Asp-Asp-Ala-Ala-Phe-Gln-SeN-Phe-Trp-His-NH2
notes: Stapled peptide composition
B2: I-190 (peptide)
peptide: Ac-[αAllylPro]DI[B5(5)]DDAAFQ[SeN]FWH-NH2
modifications: staple 1-4, 4-11; not fully specified; printed as Ac-PL3-Asp-Ile-B5-Asp-Asp-Ala-Ala-Phe-Gln-SeN-Phe-Trp-His-NH2
notes: Stapled peptide composition
B3: I-668 (peptide)
peptide: Ac-[αAllylPro][d(βAsp)]I[B5(9)]DEAAFQ[S8]F[Bta]Q-NH2
modifications: staple 1-4, 4-11
notes: Stapled peptide composition; earlier-eluting HPLC peak (staple isomer)
B4: I-646 (peptide)
peptide: Ac-[αAllylPro]DI[B5(9)]DEAAFQ[S8]F[Bta]V-NH2
modifications: staple 1-4, 4-11
notes: Stapled peptide composition; later-eluting HPLC peak (staple isomer)
B5: I-647 (peptide)
peptide: Ac-[αAllylPro]DI[B5(9)]DELAFQ[S8]F[Bta]Q-NH2
modifications: staple 1-4, 4-11
notes: as for B3
B6: I-648 (peptide)
peptide: Ac-[αAllylPro]DI[B5(9)]DELAFQ[S8]F[Bta]Q-NH2
modifications: staple 1-4, 4-11
notes: as for B4
B7: I-649 (peptide)
peptide: Ac-[αAllylPro]DI[B5(9)]DEFAFQ[S8]F[Bta]Q-NH2
modifications: staple 1-4, 4-11
notes: as for B3
B8: I-650 (peptide)
peptide: Ac-[αAllylPro]DI[B5(16)]DEFAFQ[S8]F[Bta]Q-NH2
modifications: staple 1-4, 4-11
notes: as for B4
B9: I-306 (peptide)
peptide: Ac-[αAllylPro]DA[B5(4)]DDAA[Phe(3-Cl)]V[S8]FWQ-NH2
modifications: staple 1-4, 4-11
notes: Ac-PL3-Asp-Ala-B5-Asp-Asp-Ala-Ala-3C1F-Val-S8-Phe-Trp-Gln-NH2; stapled peptide composition

biological target: T1, full-length beta-Catenin (Uniprot ID …); assay: AlphaScreen (nickel chelate) competition; full-length beta-catenin + biotin-TCF4(10-53) probe as competitor; peptide titrated
Description: Equal volume of the titrated peptide was added to the plate and incubated for 15 minutes at 20° C. Then 4 uL of donor and 4 uL acceptor beads at 10 ug/mL were added to the plate, for a 16 uL reaction pool and protected from light for 60 minutes at 20° C. prior to read. Reads were performed on a CLARIOstar plate reader (BMG Labtech) in duplicate, and data were fitted to a 1:1 binding model with hill slope using an in-house script. All provided concentrations are final concentrations.

Question: With B1 as the binder, how does the EC50 read?
Answer: 156 nM

Question: Which EC50 does the source give for B2 here?
Answer: 94 nM

Question: With Ac-[αAllylPro]DA[B5(4)]DEAA[Phe(3-Me)]V[S8]FWQ-NH2 (staple 1-4, 4-11, Stapled peptide composition) [I-207] as the binder, how does the EC50 read?
Answer: 143 nM

Question: Ac-[αAllylPro]DA[B5(4)]DEAA[Phe(3-Me)]V[S8]FWQ-NH2 (staple 1-4, 4-11, Stapled peptide composition) [I-208] was tested. Which EC50 did it give?
Answer: 143 nM

biological target: T2, full-length beta-Catenin (Uniprot ID …); assay: fluorescence polarization competition, full-length beta-catenin with 5FAM-TCF4(10-53) probe as competitor
Description: (§1) The plate was incubated protected from light for 60 minutes at 20° C. prior to read. Reads were performed on a CLARIOstar plate reader (BMG Labtech) in duplicate, and data were fitted to a 1:1 binding model with hill slope using an in-house script. All provided concentrations are final concentrations.

Question: B3 was tested. Which EC50 did it give?
Answer: 675 nM

Question: With Ac-[αAllylPro]DI[B5(9)]DEAAFQ[S8]F[Bta]V-NH2 (staple 1-4, 4-11, Stapled peptide composition) [I-645] as the binder, how does the EC50 read?
Answer: 395 nM

Question: B4 was tested. Which EC50 did it give?
Answer: 461 nM

Question: B5 was tested. Which EC50 did it give?
Answer: 445 nM

Question: How did the EC50 turn out when B6 was run?
Answer: 233 nM

Question: B7 was tested. Which EC50 did it give?
Answer: 209 nM

Question: How did the EC50 turn out when B8 was run?
Answer: 137 nM

biological target: T3, full-length beta-Catenin (Uniprot ID …); assay: FP competition vs 5FAM-TCF4(10-53) probe on full-length beta-catenin
Description: as §1

Question: How did the EC50 turn out when B9 was run?
Answer: 5000 nM

biological target: T1, full-length beta-Catenin (Uniprot ID …); assay: fluorescence polarization competition; full-length beta-catenin + 5FAM-TCF4(10-53) probe as competitor; peptide titrated
Description: as §1

Question: With B1 as the binder, how does the EC50 read?
Answer: 1600 nM

Question: B2 was tested. Which EC50 did it give?
Answer: 696 nM

Question: Ac-[αAllylPro]DA[B5(4)]DEAA[Phe(3-Me)]V[S8]FWQ-NH2 (staple 1-4, 4-11, Stapled peptide composition) [I-207] was tested. Which EC50 did it give?
Answer: 1740 nM

Question: For Ac-[αAllylPro]DA[B5(4)]DEAA[Phe(3-Me)]V[S8]FWQ-NH2 (staple 1-4, 4-11, Stapled peptide composition) [I-208], which EC50 is on record?
Answer: 1740 nM
